# ChEMBL document CHEMBL3414448, “Advances in the discovery of novel antimicrobials targeting the assembly of bacterial cell division protein FtsZ” (Eur J Med Chem, 2015)
# Compound: N=C(N)c1ccc(-c2cc3ccc(C(=N)N)cc3[nH]2)cc1
# Assay: Inhibition of Escherichia coli FtsZ assessed as reduction in substrate KM value
protein,measurement,value
"Cell division protein FtsZ (Escherichia coli K-12), P0A9A6 (protein) MFEPMELTNDAVIKVIGVGGGGGNAVEHMVRERIEGVEFFAVNTDAQALRKTAVGQTIQIGSGITKGLGAGANPEVGRNAADEDRDALRAALEGADMVFIAAGMGGGTGTGAAPVVAEVAKDLGILTVAVVTKPFNFEGKKRMAFAEQGITELSKHVDSLITIPNDKLLKVLGRGISLLDAFGAANDVLKGAVQGIAELITRPGLMNVDFADVRTVMSEMGYAMMGSGVASGEDRAEEAAEMAISSPLLEDIDLSGARGVLVNITAGFDLRLDEFETVGNTIRAFASDNATVVIGTSLDPDMNDELRVTVVATGIGMDKRPEITLVTNKQVQQPVMDRYQQHGMAPLTQEQKPVAKVVNDNAPQTAKEPDYLDIPAFLRKQAD",Km,29.4 µM
